According to patent publication US20200116741A1 (University of California, published 2020):

Tests used:
rhERFE1 [1] = target: T1, rhERFE1 (human, UniProt Q4G0M1 29-354); assay: checkerboard sandwich ELISA, biotinylated detection antibody
T1 construct: The FLAG tag was mostly lost during cell culture; also called recombinant hERFE; recombinant human erythroferrone 1
T1 sequence: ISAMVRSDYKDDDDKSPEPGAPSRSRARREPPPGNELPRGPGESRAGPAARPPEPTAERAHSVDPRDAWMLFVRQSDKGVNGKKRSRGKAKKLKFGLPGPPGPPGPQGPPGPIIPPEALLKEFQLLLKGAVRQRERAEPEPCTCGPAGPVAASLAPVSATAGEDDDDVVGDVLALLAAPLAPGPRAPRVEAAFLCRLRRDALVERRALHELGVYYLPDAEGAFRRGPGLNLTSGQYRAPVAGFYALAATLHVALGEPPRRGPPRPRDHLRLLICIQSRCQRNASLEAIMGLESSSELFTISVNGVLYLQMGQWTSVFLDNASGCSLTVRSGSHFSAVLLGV

rhERFE2 = target: T2, rhERFE2 (human, UniProt Q4G0M1 29-354); assay: hybridoma supernatant screening; checkerboard sandwich testing
T2 construct: also called Recombinant hERFE2; recombinant human erythroferrone 2
T2 sequence: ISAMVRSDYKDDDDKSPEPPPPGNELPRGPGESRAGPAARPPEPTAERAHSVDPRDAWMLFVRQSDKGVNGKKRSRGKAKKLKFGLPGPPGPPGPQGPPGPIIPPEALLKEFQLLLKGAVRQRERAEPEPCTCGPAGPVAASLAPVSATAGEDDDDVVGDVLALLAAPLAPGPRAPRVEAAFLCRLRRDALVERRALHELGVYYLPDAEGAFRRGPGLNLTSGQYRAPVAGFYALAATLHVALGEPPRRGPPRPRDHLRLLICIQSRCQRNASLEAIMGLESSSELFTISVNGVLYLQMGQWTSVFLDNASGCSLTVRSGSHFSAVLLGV
Description: Rabbit hybridomas were generated (custom order fulfilled by Abcam, Burlingame, Calif.) from rabbits immunized by rhERFE1 and boosted by rhERFE2. Hybridoma supernatants were selected for reactivity against rhERFE2. After biotinylation of Mabs (EZ-Link sulfo-NHS-LC-LC-Biotin kit, Thermo Fisher Scientific), optimal pair of unbiotinylated capture Mab and biotinylated detection Mab was chosen by checkerboard testing with rhERFE1 and rhERFE2. The cDNAs encoding the final Mab pair (#9 and #42) were cloned from the hybridomas and used to produce the Mabs recombinantly.

human erythroferrone [2] = target: T3, human erythroferrone (human, UniProt Q4G0M1 29-354); assay: sandwich ELISA on human serum, biotinylated Mab#42 as detection antibody
T3 construct: Native hormone in human serum, detected by the Mab#9 / Mab#42 sandwich ELISA; also called hERFE; serum hERFE
T3 sequence (looked up): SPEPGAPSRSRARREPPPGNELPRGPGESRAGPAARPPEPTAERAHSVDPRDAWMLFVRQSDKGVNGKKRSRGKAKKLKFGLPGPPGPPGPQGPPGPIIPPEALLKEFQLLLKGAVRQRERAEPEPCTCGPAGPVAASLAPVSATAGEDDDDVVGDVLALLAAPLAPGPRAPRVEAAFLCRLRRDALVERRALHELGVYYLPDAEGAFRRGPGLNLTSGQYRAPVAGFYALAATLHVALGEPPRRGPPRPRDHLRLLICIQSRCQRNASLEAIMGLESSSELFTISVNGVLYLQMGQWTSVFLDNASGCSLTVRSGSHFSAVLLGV
Procedure: (§1) 96-well high binding plates (Costar #3590) were coated with Mab#9 diluted to 1 μg/ml in sodium carbonate buffer (50 mM, pH 9.6), overnight at 4° C. Plates were washed 3-times with TB S-T (TBS +0.05% Tween 20) then blocked for 1 hour at room temperature with 200 µl/well Blocking Buffer (BB: PBS,0.2% Na casein, 0.05% Tween 20, 0.1M NaCl). Recombinant hERFE2 standard was first diluted to 1 μg/ml and then serially diluted in BB to 10, 5, 2.5, 1.25, and 0.625 ng/ml. After a 1 hour incubation at 25° C. in a 300 rpm shaker, the plate was washed 4-times with TBS-T, 10 seconds, 25° C., and 300 rpm per wash and incubated 1 hour at 25° C., 300 rpm in shaker with 100 μl/well biotinylated Mab#42 (1 μg/ml in BB). After incubation for 1 hour at 25° C., 300 rpm in shaker, the plate was washed 4-times as before, incubated for 45 minutes with Neutravidin-HRP conjugate (ThermoScientific #31030) 1/5000 (100 μl/well) washed again 3-times as before and developed with 100 μl TMB Substrate System for ELISA (ThermoScientific #34028) at room temperature in the dark for 10 minutes. The reaction was stopped by adding 50 μl of 2N sulfuric acid and the plates were read on a Spectramax 250 (Molecular Devices) at 450 nm.

[3] = target: T4, peptide ELPRGPGESRAGPAARPP (human); assay: peptide epitope scanning
T4 peptide: ELPRGPGESRAGPAARPP

rhERFE1 [4] = target: T1, rhERFE1; assay: checkerboard sandwich ELISA, capture antibody
human erythroferrone [5] = target: T3, human erythroferrone; assay: sandwich ELISA on human serum, Mab#9 as capture antibody
Procedure: as §1

Measured: binding result

B1: Mab#42 (antibody, V domains shown)
VH: QSLEESGGRLVTPGGSLTLTCTVSGIDLSSYEMGWVRQAPGKGLEWIGVIGTDGTAVYATWVKGRFTISKTSTTVDLKMTSLTTEDTATYFCARDSSGNSNYRAFDPWGPGTLVTVSS
VL: AYDMTQTPASVEVAVGGTVTIKCQASQSIYSYLSWYQQKPGQPPKLLIYRASTLASGVPSRFKGSGSGTQFTLTISDLECADAATYYCQQGFVISNVLNSFGGGTEVVVKG
notes: Rabbit monoclonal from a hybridoma, later made recombinantly; also called rabbit monoclonal antibody #42; biotinylated detection Mab
binds: rhERFE1 [1] | rhERFE2 | human erythroferrone [2]

B2: Mab#9 (antibody, V domains shown)
VH: QSVEESGGRLVTPGTPLTLTCTVSGIDLNDNAMRWVRQAPGKGLEWIGVIYIDTSTYYASWAKGRFTISKTSSTTVDLKITSPTTEDTATYFCVREDGYRLGDVWGPGTLVTVSS
VL: ALVMTQTPSSVSAGVGGTVTINCQASQSLYNNNYLSWFQQKPGQPPKLLIYWASTLASGVPSRFSGSGSGTQFTLTISGVACDDAATYYCAGYKSSSNDDFAFGGGTEVVVKG
notes: Rabbit monoclonal from a hybridoma, later made recombinantly; Used unbiotinylated as the capture antibody in the ELISA; also called rabbit monoclonal antibody #9; capture Mab
binds: [3] | rhERFE1 [4] | human erythroferrone [5] | rhERFE2
